T1: human ALK2-L196P on cells (human, UniProt Q04771 21-509)
T1 sequence: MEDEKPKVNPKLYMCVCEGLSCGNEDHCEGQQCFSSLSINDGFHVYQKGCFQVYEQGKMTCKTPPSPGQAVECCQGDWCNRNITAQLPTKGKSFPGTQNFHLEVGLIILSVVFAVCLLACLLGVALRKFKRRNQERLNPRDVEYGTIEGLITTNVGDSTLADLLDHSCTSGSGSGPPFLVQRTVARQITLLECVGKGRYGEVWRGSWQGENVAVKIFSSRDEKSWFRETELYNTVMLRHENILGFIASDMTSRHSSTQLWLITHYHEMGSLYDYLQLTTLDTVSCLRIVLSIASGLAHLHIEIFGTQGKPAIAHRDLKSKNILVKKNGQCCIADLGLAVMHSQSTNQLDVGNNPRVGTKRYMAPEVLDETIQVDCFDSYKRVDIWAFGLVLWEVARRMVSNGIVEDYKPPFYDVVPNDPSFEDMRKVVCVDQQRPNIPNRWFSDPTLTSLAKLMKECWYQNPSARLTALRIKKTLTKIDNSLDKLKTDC

T2: human ALK2-P197_F198delinsL on cells (human, UniProt Q04771 21-509)
T2 construct: also called delP197_F198insL
T2 sequence: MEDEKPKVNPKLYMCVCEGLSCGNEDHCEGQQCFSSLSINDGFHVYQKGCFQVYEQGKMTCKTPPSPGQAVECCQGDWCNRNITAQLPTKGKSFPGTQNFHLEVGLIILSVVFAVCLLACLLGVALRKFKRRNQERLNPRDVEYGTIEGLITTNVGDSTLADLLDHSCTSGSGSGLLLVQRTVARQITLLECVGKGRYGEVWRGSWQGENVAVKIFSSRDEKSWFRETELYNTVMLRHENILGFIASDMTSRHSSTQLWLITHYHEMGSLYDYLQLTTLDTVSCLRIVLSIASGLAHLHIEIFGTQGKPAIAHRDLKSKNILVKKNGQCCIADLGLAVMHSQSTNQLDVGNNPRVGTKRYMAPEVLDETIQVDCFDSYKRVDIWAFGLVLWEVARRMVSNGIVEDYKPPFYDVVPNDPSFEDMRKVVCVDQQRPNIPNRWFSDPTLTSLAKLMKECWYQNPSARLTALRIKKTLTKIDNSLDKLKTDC

T3: human ALK2-R375P on cells (human, UniProt Q04771 21-509)
T3 sequence: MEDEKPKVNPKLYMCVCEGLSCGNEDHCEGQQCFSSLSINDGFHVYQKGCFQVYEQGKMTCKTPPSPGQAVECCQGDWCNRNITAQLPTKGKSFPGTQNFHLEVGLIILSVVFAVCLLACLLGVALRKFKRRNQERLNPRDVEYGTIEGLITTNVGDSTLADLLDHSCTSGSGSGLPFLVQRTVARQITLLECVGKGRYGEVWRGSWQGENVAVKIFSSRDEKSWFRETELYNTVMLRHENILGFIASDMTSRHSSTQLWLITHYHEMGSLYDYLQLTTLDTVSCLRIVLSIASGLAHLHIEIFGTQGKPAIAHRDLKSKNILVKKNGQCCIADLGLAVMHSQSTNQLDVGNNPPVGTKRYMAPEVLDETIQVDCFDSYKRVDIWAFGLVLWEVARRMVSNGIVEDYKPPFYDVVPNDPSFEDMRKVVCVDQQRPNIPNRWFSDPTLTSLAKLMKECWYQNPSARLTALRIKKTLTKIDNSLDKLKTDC

T4: human ALK2-G325A on cells (human, UniProt Q04771 21-509)
T4 sequence: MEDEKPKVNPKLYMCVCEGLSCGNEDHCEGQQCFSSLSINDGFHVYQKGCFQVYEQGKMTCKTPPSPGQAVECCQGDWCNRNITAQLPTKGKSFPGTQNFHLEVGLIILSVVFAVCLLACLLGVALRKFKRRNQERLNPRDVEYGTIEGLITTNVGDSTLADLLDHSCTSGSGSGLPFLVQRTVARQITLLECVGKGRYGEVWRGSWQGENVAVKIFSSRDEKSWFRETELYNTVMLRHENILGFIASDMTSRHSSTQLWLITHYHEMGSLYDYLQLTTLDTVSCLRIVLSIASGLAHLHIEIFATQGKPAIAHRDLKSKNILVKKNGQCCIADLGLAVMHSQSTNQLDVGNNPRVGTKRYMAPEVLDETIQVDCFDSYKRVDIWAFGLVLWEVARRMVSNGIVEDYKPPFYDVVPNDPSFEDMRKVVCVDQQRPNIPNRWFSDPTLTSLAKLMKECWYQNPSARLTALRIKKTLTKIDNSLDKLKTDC


What was measured:
Experiment in all cases: immunofluorescence on transfected, formalin-fixed C2C12 cells, IgG at 10 µg/mL, Alexa 594 anti-rat IgG
[1] = molecular target: T1, human ALK2-L196P on cells
How it was run: (§1)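 C2C12 mouse myoblasts transfected overnight with human ALK2 cDNA (wild-type or FOP variants incl. G325A, pcDEF3 vector). Cells formalin-fixed, goat-serum blocked, stained 1 h RT with purified IgG at 10 µg/mL, then Alexa 594 anti-rat IgG 1 h; DAPI nuclei, fluorescence microscopy read-out.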

[2] = molecular target: T2, human ALK2-P197_F198delinsL on cells
How it was run: as §1

[3] = molecular target: T3, human ALK2-R375P on cells
How it was run: as §1

[4] = molecular target: T4, human ALK2-G325A on cells
How it was run: as §1

| binding result [1] | binding result [2] | binding result [3] | binding result [4] | Binder |
| --- | --- | --- | --- | --- |
| binds | binds | binds | binds | rat anti-ALK2 monoclonal antibody A2-27D (antibody, V domains shown, Rat monoclonal IgG from a hybridoma; also called 27D11) VH: EVQLVESGGGLVQPGRSLKLSCLASGSTFSNYGMKWIRQAPGKGLEWVASISRSSTYIYYADTVKGRFTISRDNARNTLYLQMTSLRSEDTALYYCAAAISTPFYWYFDFWGPGTVVTVSS VL: EIVLTQSPTTMAASPGEKVTLNCLASSSVSYMTWYQQKSGASPKLWIYGTSNLASGVPNRFSGSGSGTSYSLAISSMEAEDVATYYCLHLTSYPPYTFGAGTKLELKR |
| binds | binds | binds | binds | rat anti-ALK2 monoclonal antibody A2-25C (antibody, V domains shown, Rat monoclonal IgG from a hybridoma; also called 25C11) VH: EVQLVESGGGLVQPGGSLKLSCAASGFTFSYYAMSWVCQAPTKGLEWVASISRGGDNTYYRDTVKGRFTTSRDNAKNTLYLQMDSLRSEDTATYYCARLNYNNYFDYWGQGVMVTVSS VL: DIQMTQSPASLSASLEEIVTITCQASQDIGNWLSWYQQKPGKSPQLLIYGATSLADGVPSRFSGSRSGTQYSLKISRLRVEDIGIYYCLQAYSAPFTFGSGTKLEIKR |

Source: patent US20220041738A1 (SAITAMA MEDICAL UNIVERSITY, published 2022)
